# Measured values published in the supplement of paper PMC10724198.
# ± gives the standard deviation of the averaged measurements.
# Test system: Saccharomyces cerevisiae
# Experiment: protein stability index of tFT-peptide fusion (C-terminal peptide) (PSI (0-1 scale)); higher = more stable (slower turnover)
# Settings: genetic background: wild type; temperature: 30 C
# Protocol: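 Multiplexed protein stability (MPS) profiling in S. cerevisiae. Random 12-aa peptides (tFT-X12 library) are fused to the C-terminus of a sfGFP-mCherry tandem fluorescent timer, after mCherry and a GGGS linker. Cells are FACS-sorted into 8 mCherry/sfGFP bins and deep-sequenced. The protein stability index (PSI) is the read-weighted bin average, scaled from 0 (unstable) to 1 (stable). Only peptides with >10 reads are reported; cells were grown at 30 °C in SC-His with glucose.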
# 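Also: PSI is a weighted mean of sequencing reads over stability bins, variants kept only with over 10 reads, mCherry proximal and sfGFP distal, peptide attached via GGGS linker.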
row,Sequence,protein stability index
1,VFWVFDGFEGFI,0.825 ± 0.022
2,LPPPPLTTLLHT,0.604 ± 0.043
3,YLYLKSRDTFLN,0.7094 ± 0.0013
4,VVDWRRAAKREG,0.685 ± 0.051
5,RIDLFCVRSSLV,0.6573 ± 0.0054
6,RLPPLLVPFPSS,0.694 ± 0.015
7,NKQTAEIGRGSC,0.651 ± 0.03
8,ATPPSPLPPSPP,0.754 ± 0.061
9,EVWGSVETSCAS,0.739 ± 0.17
10,PPSPRLFRFLPP,0.631 ± 0.074
11,KALNLAAAILYG,0.638 ± 0.015
12,WLNMKFRTLCGS,0.634 ± 0.038
13,RLFTTVHSLQDV,0.674 ± 0.016
14,GFGLACGRCMGS,0.623 ± 0.098
15,AVFSWVTAGQCD,0.684 ± 0.027
16,WGGGVLRRRVGA,0.752 ± 0.055
17,SGTGRINWEGFL,0.709 ± 0.03
18,LVGTYTPRFTPC,0.643 ± 0.1
19,LPSRSLPSPGPP,0.714 ± 0.027
20,LSIPPSLLSLPL,0.702 ± 0.025
21,APPPPPALPEYQ,0.685 ± 0.047
22,GGWGVGVWGVGG,0.753 ± 0.08
23,LYSNVLAAVMTG,0.623 ± 0.043
24,LLRPLRRLDVSW,0.632 ± 0.0065
25,HGAPLPTSAPKH,0.7271 ± 0.0031

row,Sequence,protein stability index
1,LLPLLYKWLGLR,0.681 ± 0.025
2,SSHSPFSPVLLP,0.71 ± 0.017
3,SGLGRPHLRCLD,0.672 ± 0.042
4,ARPSRPPPPSPP,0.662 ± 0.018
5,LPAPPAPLTFPG,0.687 ± 0.021
6,PALAPLRPLPPV,0.669 ± 0.0073
7,SVPTPPLVPSIS,0.665 ± 0.07
8,VPVITLGSRISG,0.658 ± 0.0088
9,LFERSFSSHPVL,0.769 ± 0.13
10,LLLPPLSSSPPP,0.7111 ± 0.0032
11,SAPRDLYIHFSR,0.7371 ± 0.0014
12,ISSTGYQARHRG,0.688 ± 0.03
13,GGCSRYVLILFD,0.686 ± 0.15
14,RSRCYSNIRIFI,0.589 ± 0.048
15,CWRDTSSPSVLD,0.682 ± 0.041
16,PFPPPSPPPPSS,0.6785 ± 0.003
17,GVSVSSSFLNGC,0.669 ± 0.019
18,PLLPPLPATSHT,0.786 ± 0.14
19,GWGKWGVGIGRG,0.694 ± 0.032
20,RLNNRVMGHIEA,0.6673 ± 0.0062
21,FKKMTNVIKGNN,0.689 ± 0.016
22,PTVKVLSWLAGH,0.703 ± 0.018
23,PRRPAFPPPGLP,0.705 ± 0.072
24,FLLSLLAFRFFL,0.478 ± 0.04
25,GSSCHFPARCPV,0.659 ± 0.018

row,Sequence,protein stability index
1,VRGRVGYFIVRK,0.642 ± 0.044
2,RDPIGRPEMSKI,0.67 ± 0.086
3,NCSSNNRQSENI,0.644 ± 0.017
4,KCKGTCESRRGI,0.833 ± 0.034
5,ARNDAGKRERVT,0.696 ± 0.016
6,PPCTVHPLPRLP,0.727 ± 0.02
7,FCSLLLFRFVVL,0.517 ± 0.015
8,TTILCVARHIPH,0.759 ± 0.089
9,VPPFGPTPLASI,0.797 ± 0.073
10,RLCSPVSVLLPP,0.713 ± 0.047
11,PPRFCPPLAPSV,0.681 ± 0.0095
12,SSDFVFGHRFCR,0.693 ± 0.015
13,KTGVRAVSLTGS,0.696 ± 0.038
14,RGRSGASSGWRG,0.659 ± 0.044
15,APSRTPRQPPSH,0.716 ± 0.067
16,VVAFSLLSGFLV,0.636 ± 0.04
17,ASVLGGLFRDRV,0.773 ± 0.057
18,GCRGGLREAGVW,0.768 ± 0.024
19,FVWSGVGCWSEA,0.701 ± 0.0076
20,LLSRQEWMTGRS,0.673 ± 0.031
21,KRKPEHKSAAEE,0.669 ± 0.038
22,LRCSVKQNLGIV,0.655 ± 0.045
23,SPPSPYPPPLDR,0.695 ± 0.021
24,GLVVATECGGRP,0.648 ± 0.024
25,VSMSACSPGGMS,0.646 ± 0.02

row,Sequence,protein stability index
1,VDREGFTVLGRV,0.657 ± 0.021
2,RGGGSWWCGGDQ,0.76 ± 0.024
3,RSPPAPRFLPAP,0.652 ± 0.049
4,SSPLPPPSPLPA,0.678 ± 0.031
5,GARSARVWARAK,0.664 ± 0.022
6,PPPPPAIPRRRT,0.678 ± 0.033
7,CTSCDVFVFCPF,0.708 ± 0.036
8,PPLLPPTPPLSA,0.625 ± 0.018
9,QSRHCHPTPKRL,0.65 ± 0.031
10,YGVCFKAFQFKL,0.676 ± 0.056
11,RKRWQWGRVRGV,0.617 ± 0.11
12,GSEAVQRKNESC,0.724 ± 0.08
13,WSFSSGCWGYVG,0.6281 ± 0.0036
14,SRAPPTSLVWGF,0.678 ± 0.097
15,RPVPVPTALIPS,0.61 ± 0.013
16,CGGVLAQREVSG,0.637 ± 0.021
17,HVHSLAFPPPAT,0.695 ± 0.068
18,FFPQPTPVSISR,0.8264 ± 0.0039
19,KLQKKTRQKKKK,0.653 ± 0.035
20,EGRRAVGRGRGR,0.672 ± 0.05
21,LAESTSYNQRRP,0.701 ± 0.06
22,PPTPPPPSPLAP,0.73 ± 0.034
23,QPPPPSPPPPLP,0.653 ± 0.047
24,ASEHRPPRPHER,0.683 ± 0.071
25,GAGVEIGKSRYR,0.716 ± 0.074

row,Sequence,protein stability index
1,IVGAGVFEERWG,0.77 ± 0.023
2,PPHSPETVPARP,0.688 ± 0.046
3,VARPSGQRVRHA,0.656 ± 0.085
4,GIVDCTKVIGLP,0.722 ± 0.028
5,FPHSPPFIPHPP,0.647 ± 0.021
6,LSLCVVFRAPSR,0.686 ± 0.042
7,VSDVIPRSRCVR,0.6884 ± 0.0024
8,GTDVGKVSASQG,0.638 ± 0.037
9,VLLLSRPLFPFS,0.669 ± 0.031
10,FTERVVEKFVLY,0.633 ± 0.01
11,RLGWGGVGGAGV,0.711 ± 0.033
12,KMYILKGKIRKI,0.612 ± 0.057
13,LAPPPLGNSSRP,0.704 ± 0.049
14,GLMTISFPSFFR,0.704 ± 0.068
15,GVTGGWVVNRGV,0.7054 ± 0.007
16,LVCPFFLSSRIF,0.653 ± 0.025
17,KLVGSLLSPDSE,0.724 ± 0.015
18,YTTVRGETRSQL,0.727 ± 0.017
19,LLNLQEEADLPS,0.724 ± 0.035
20,LSVFAFRGVFRF,0.638 ± 0.045
21,PRSSPPPPPPPP,0.681 ± 0.035
22,RARGGGAEPGRN,0.685 ± 0.027
23,EDCAGIFCQSVK,0.68 ± 0.015
24,SPRSPACPTPDR,0.734 ± 0.011
25,KKQKRRKGEREK,0.637 ± 0.0023

row,Sequence,protein stability index
1,ATRLFSSNLFLR,0.576 ± 0.051
2,RNKNNKKNKKIR,0.702 ± 0.1
3,KKTTKRKKEKQK,0.633 ± 0.07
4,WSRGGVLGVCCG,0.536 ± 0.031
5,DSGLVSRNLFLH,0.645 ± 0.18
6,ADMTRSRYMGRS,0.692 ± 0.033
7,ELKGRQLGSNLK,0.691 ± 0.045
8,PMPGRSEREYQV,0.711 ± 0.087
9,DSILCVPCVYLY,0.629 ± 0.0084
10,KKNKKKRRAQKE,0.669 ± 0.044
11,DLGSFVNSGWVT,0.706 ± 0.044
12,ANKNDHNNQRQA,0.789 ± 0.09
13,FGDLAVFFAFLL,0.564 ± 0.0069
14,WVGGVACGAGGG,0.62 ± 0.069
15,RKKKKKKRGKNR,0.621 ± 0.043
16,FCRVCLAFLSGL,0.781 ± 0.22
17,ASVSVWLVFSGG,0.594 ± 0.0075
18,RTLYEAAPLFVG,0.729 ± 0.051
19,WPRVCPFSLYDA,0.723 ± 0.012
20,KNEGYHNVTMNL,0.707 ± 0.017
21,LGACAGSGFKGV,0.713 ± 0.033
22,TPGGDPLAPRQS,0.641 ± 0.061
23,AGFGVGALSRSG,0.673 ± 0.041
24,GISKHGAITSRI,0.725 ± 0.0033
25,KKKKRKKKKINI,0.611 ± 0.038

row,Sequence,protein stability index
1,LISNEGASRWDL,0.625 ± 0.018
2,SELTCSSINSAT,0.673 ± 0.024
3,LPPPLPPSLRLR,0.602 ± 0.083
4,KNKIKITKRKRK,0.734 ± 0.0099
5,VRPQHIITSGSC,0.739 ± 0.15
6,CCVGVGTRLGFA,0.646 ± 0.082
7,FGGEGGEEMAGG,0.789 ± 0.034
8,EGKPALANSTVR,0.712 ± 0.052
9,FPAPSPPFRLPP,0.748 ± 0.025
10,AMLLRCRQGDLI,0.675 ± 0.032
11,PPPAPPSPPPPP,0.65 ± 0.054
12,KRGKRTEKDKET,0.652 ± 0.071
13,KRCTFCGGGWVM,0.7276 ± 0.00082
14,NSSEIGQNADTA,0.672 ± 0.025
15,KKKTIKKTIKNQ,0.702 ± 0.031
16,KLRETQIHQGKT,0.698 ± 0.021
17,TISRIQTNINKK,0.742 ± 0.18
18,VRDLDMEEISRY,0.727 ± 0.05
19,DQIWHPATRIMC,0.638 ± 0.071
20,PPPPPPLPLPLS,0.711 ± 0.084
21,ESSPQPIPSRLA,0.707 ± 0.016
22,LVFTDDGGVRSL,0.609 ± 0.03
23,PPVPPPLPSPPP,0.712 ± 0.025
24,RGLGVFGVVSPA,0.7 ± 0.057
25,SVVVWRWVCGWS,0.549 ± 0.014

row,Sequence,protein stability index
1,GGLLGRLWDGGA,0.723 ± 0.04
2,HPPRPPLPRPRL,0.778 ± 0.19
3,VRYGQRGTFGLL,0.6901 ± 0.0019
4,KDRRNKNKRQEY,0.633 ± 0.012
5,DVHNCSLQAAKK,0.691 ± 0.012
6,PHLPYCSPSFPV,0.642 ± 0.059
7,GFLGLLASFFVL,0.604 ± 0.022
8,LLMPRTKEEYDN,0.601 ± 0.24
9,ELKVVVTPLVPS,0.588 ± 0.053
10,WVKPVRAWTILR,0.605 ± 0.025
11,QWAGGQERTAGK,0.583 ± 0.024
12,VRATSMWRSRGR,0.688 ± 0.053
13,ADCLSCRVLIVM,0.484 ± 0.075
14,RVVGGGGEAWRE,0.73 ± 0.033
15,VLGRRGLVWKRV,0.5993 ± 0.0033
16,SGGSALGCGRAA,0.658 ± 0.063
17,PPPGPRPPSRSN,0.581 ± 0.022
18,LPLGSTVVSGES,0.632 ± 0.034
19,ELGARGGRGGGR,0.739 ± 0.038
20,LGGGGGLTAAGV,0.743 ± 0.016
21,PLPPCPPTPCPS,0.648 ± 0.013
